Experimental findings from patent US20050019842A1 are described below.

The target of experiment [1] is mouse IgG (Sigma Chemical Co., product number I5381). Nature of the experiment: resonant light scattering; step 1, 2.2 mg/mL E. coli cellular extract proteins on mouse IgG microparticles; against the starting spectra.
For experiment [2] the target is unchanged. Nature of the experiment: resonant light scattering; step C, 40 µg/mL Fab specific goat anti-mouse IgG on mouse IgG held by Protein G′ microparticles; shift is cumulative against the unbound reference (0.054 nm after step B).
The target is the same in experiment [3]. Nature of the experiment: resonant light scattering; step 2, 50 µg/mL anti-Alexa rabbit IgG in cell extract background on mouse IgG microparticles; against the starting spectra.
Experiment [4] addresses avidin (from egg white, Sigma Chemical Co., product number A9275) (UniProt P02701). In words: resonant light scattering; step C, 50 µg/mL antibody on avidin held on biotinylated microparticles; shift is cumulative against the unbound reference (avidin step alone 0.031 nm); N=18.
Sequence of UniProt P02701 (P02701 25-152 limits assumed): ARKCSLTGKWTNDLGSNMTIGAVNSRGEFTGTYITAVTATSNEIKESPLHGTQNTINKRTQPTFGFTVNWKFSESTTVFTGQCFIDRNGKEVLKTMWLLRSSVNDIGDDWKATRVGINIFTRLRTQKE
Experiment [5] deals with Protein G′ (Sigma Chemical Co. product P-4689) (group G Streptococcal strain) (UniProt P19909). Nature of the experiment: resonant light scattering, real time; 10 µg/mL mouse IgG on Protein G′ microparticles.
The target is the same in experiment [6]. Nature of the experiment: resonant light scattering, real time; 10 µg/mL mouse IgG on Protein G′ microparticles; time 25 min.
Experiment [7] shares this target. Nature of the experiment: resonant light scattering, real time; 50 µg/mL mouse IgG on Protein G′ microparticles; time 5 min.
For experiment [8] the target is unchanged. In words: resonant light scattering, real time; 500 µg/mL mouse IgG on Protein G′ microparticles; time 35 min.
Experiment [9] has the same target. In words: resonant light scattering, real time; 10 µg/mL mouse IgG on Protein G′ microparticles; time 5 min.
The target is the same in experiment [10]. Nature of the experiment: resonant light scattering, real time; 500 µg/mL mouse IgG on Protein G′ microparticles; time 5 min.
Experiment [11] shares this target. In words: resonant light scattering, real time; 10 µg/mL mouse IgG on Protein G′ microparticles; time 16 min.
The target is the same in experiment [12]. In words: resonant light scattering, real time; 500 µg/mL mouse IgG on Protein G′ microparticles; time 11 min.
Experiment [13] has the same target. In words: resonant light scattering, real time; 10 µg/mL mouse IgG on Protein G′ microparticles; time 35 min.
Experiment [14] has the same target. In words: resonant light scattering, real time; 50 µg/mL mouse IgG on Protein G′ microparticles; time 30 min.
The target is the same in experiment [15]. In words: resonant light scattering, real time; 10 µg/mL mouse IgG on Protein G′ microparticles; time 20 min.
Experiment [16] shares this target. In words: resonant light scattering; step B, 50 µg/mL mouse IgG on Protein G′ microparticles, 0.5 h; against the unbound reference.
The target is the same in experiment [17]. Nature of the experiment: resonant light scattering, real time; 500 µg/mL mouse IgG on Protein G′ microparticles; time 16 min.
Experiment [18] shares this target. In words: resonant light scattering, real time; 500 µg/mL mouse IgG on Protein G′ microparticles; time 30 min.
Experiment [19] has the same target. Nature of the experiment: resonant light scattering, real time; 500 µg/mL mouse IgG on Protein G′ microparticles; time 20 min.
Experiment [20] shares this target. In words: resonant light scattering, real time; 10 µg/mL mouse IgG on Protein G′ microparticles; time 50 min.
Experiment [21] shares this target. In words: resonant light scattering, real time; 50 µg/mL mouse IgG on Protein G′ microparticles; time 0 min (reference).
Experiment [22] has the same target. In words: resonant light scattering, real time; 500 µg/mL mouse IgG on Protein G′ microparticles; time 0 min (reference).
Experiment [23] has the same target. In words: resonant light scattering, real time; 500 µg/mL mouse IgG on Protein G′ microparticles; time 25 min.
For experiment [24] the target is unchanged. Nature of the experiment: resonant light scattering, real time; 10 µg/mL mouse IgG on Protein G′ microparticles; time 40 min.
Experiment [25] has the same target. Nature of the experiment: resonant light scattering, real time; 50 µg/mL mouse IgG on Protein G′ microparticles; time 11 min.
Experiment [26] has the same target. In words: resonant light scattering, real time; 50 µg/mL mouse IgG on Protein G′ microparticles; time 20 min.
Experiment [27] shares this target. Nature of the experiment: resonant light scattering, real time; 50 µg/mL mouse IgG on Protein G′ microparticles; time 35 min.
Experiment [28] shares this target. In words: resonant light scattering, real time; 10 µg/mL mouse IgG on Protein G′ microparticles; time 60 min.
The target is the same in experiment [29]. In words: resonant light scattering, real time; 10 µg/mL mouse IgG on Protein G′ microparticles; time 0 min (reference).
Experiment [30] has the same target. In words: resonant light scattering, real time; 10 µg/mL mouse IgG on Protein G′ microparticles; time 30 min.
For experiment [31] the target is unchanged. Nature of the experiment: resonant light scattering, real time; 10 µg/mL mouse IgG on Protein G′ microparticles; time 11 min.
Experiment [32] has as its target mouse IgG (Sigma Chemical Co., product number I5381). Nature of the experiment: resonant light scattering; step 3, 50 µg/mL rabbit anti-mouse IgG in step 2 background on mouse IgG microparticles; against the starting spectra.

As for E. coli cellular extract proteins, the resonance wavelength shift in experiment [1] was -0.005 nm.

“Fab specific goat anti-mouse IgG (Sigma Chemical Co. product M 6898) (antibody)”: the resonance wavelength shift in experiment [2] stood at 0.111 nm.

With “anti-Alexa Fluor 488 rabbit IgG (Molecular Probes, Inc. product number A-11094) (antibody)”, the resonance wavelength shift in experiment [3] is -0.004 nm.

For “biotinylated anti-bovine immunoglobulin G (IgG) [H+L] [Goat] (Rockland Inc., product number 601-1602) (antibody)”, the resonance wavelength shift in experiment [4] is 0.069 nm.

Take “mouse IgG (Sigma Chemical Co., product number I5381) (antibody)”: in experiment [5], the percent of the saturation binding level stood at 70%. The wavelength shift in experiment [6] stood at 0.041 nm; in experiment [7], 0.032 nm; in experiment [8], 0.054 nm; in experiment [9], 0.01 nm; in experiment [10], 0.037 nm; in experiment [11], 0.026 nm. The wavelength shift in experiment [12] stood at 0.049 nm; in [13], 0.036 nm; in experiment [14] it was 0.058 nm; in experiment [15] it was 0.03 nm; in experiment [17], 0.05 nm; in experiment [18], 0.054 nm. The wavelength shift in experiment [19] was 0.053 nm; in experiment [20], 0.043 nm; in [21], 0 nm; in experiment [22], 0 nm; in [23], 0.052 nm; in [24] it was 0.041 nm. Also, the wavelength shift in experiment [25] was 0.037 nm; in experiment [26], 0.051 nm; in experiment [27], 0.06 nm; in experiment [28] it was 0.043 nm; in [29], 0 nm; in experiment [30] it was 0.036 nm. The wavelength shift in [31] was found to be 0.022 nm. In addition, the resonance wavelength shift in experiment [16] amounted to 0.054 nm.

As to “rabbit anti-mouse IgG (H+L) (unconjugated, Pierce, product 31188) (antibody)”, the resonance wavelength shift in experiment [32] is 0.056 nm.
